Holding throughout (test): AlphaScreen or HTRF
The target of assay [1] is DR2a (DRA*0101/DRB5*0101), biotinylated, direct LOCI assay at pH 6 (human).
The target in assay [2] is DR1GrpE: DR1 α chain 1–181 and β chain 1–190 fused C-terminally to GrpE, not biotinylated (human).
Assay [3] addresses DRB1*0813: DRA*0101/DRB1*0813 (human).
The target in assay [4] is DR2a (DRA*0101/DRB5*0101) with non-biotinylated β chain, competitive LOCI assay (human).

Data on one substance can be found in article PMC2690590, “Functional recombinant MHC class II molecules and high-throughput peptide-binding assays” (Immunome Research, 2009).

Turning to Flu HA1194-202 peptide […], the Kd in assay [1] turned out to be 167 nM; in assay [3] it was 276 nM. Besides, the concentration for half-maximal inhibition (IC50) in assay [2] was found to be 42 nM; in assay [4], 529 nM.

For orientation: Kd means a measure of binding affinity in units of concentration. High values mean weaker binding, low ones tighter binding. The term IC50 denotes the concentration needed to halve the response being measured. High values mean a need for much substance, low ones inhibition by little substance.
